Test: label from the status in PepcDB records

With “TQSNLYSFLKAISNRFSQYNYSSILCVTSISFDIFILETLFPIFMGKTCVFASDEEIEDISKLTQLIRIYQVDTIQSTPSRWGIFTEDEQLMTLLKERLKLVLVGGEKLTKNIAEKLLSIGGKLINLYGPTEATVWAFASEVTDPNQIYLGEP” the protein production was “failed”.

In the case of “MREDNPNWFLRWEEELPSPEELIPISQTLITPHLALAFQIGSPNHHLGSKRTTAIYHQKLQSSTTPTTPTPTPPPMMMNSDFGGGDSTDLGSGSIGGEPARTLKRPRLVWTPQLHKRFVDAVGHLGIKNAVPKTIMQLMSVEGLTRENVASHLQKYRLYLRRMQGGNGNGITGGHVIVSDSATDRLFASSPVPAHFLSPDYLMPPLEHSYMGKHVITQQNQVVRNLRYEDSEYGHGSMKMLKLFPAGN”, the protein production is reported as “not failed”.

For “MPFVLRCLLCCTLFVLGGCAAHEAPLAPVNPMGLSGNVAPEAEKNYALARVLWGNSEVCSDPVQAVAYLDRAIAVQPDYAAAYQRRGLAYSEMGRYEEAFEDLTKALRLKPGVEAYTYRGLVSMRMGNLIGARKDLDHALELDSGYHRAWNFRAAVRLQQDDTAGACADFAKGCSKGDCTGMESARESGICK”, the protein production was “failed”.

For “MTPIHVVGIGLDGLPGLAAAVQQIIDSATLLVGSDRHLQLIPQGDTPRLSLGNFNASLKAIQTHLDTTANPQVVILTSGDPLFYGLGRWLLEVFAPDQLTFHPHLSAVQLAFSRLKLPWQDAVIYSAHGRDLAGLVPLLQRGVEKIAIYTDGEANIAAISRLYQALHIPVTYRAWVCQALGSAEEAILPWDLAQPVTALPPVHPLNLVVLLRQPQRLPPREQPIVGLGDDQFFTFADRPSLMTKREVRVLVLAELALTSTVEIVWDIGAGTGSVAVEIARLAPQATIYAIEKTAIGFQLIERNRRAFGLANLIPLQGTAPQCLRDLPPPDRVFIGGSGAQLLANLDYCWSHLNAGGRLVLAIATLEHQGQVLHWCQTHQINPQVLQVQLSRSVP”, the protein production was “failed”.

With “MGGDKIDLYKRFSILFCTIFLLLILQGTVAAESNYTVDYSTYLGDKVVDEARDVYVDDSGYIYVTGSTHVNGSKDVFVTKFNVTREVIYHTILTDTSGDDWGHRIVADGDGYAYVVGEINHDGLKVADAFISKIDPSGKEVKRVYIGGSGYDVAKGLAIDYEGNIYVSGYTISTVLNVSELGGGTARVPGTNPNATPLTDWTYHGGYDAFLARFDQDLNPVNLRYFGGSWDDYCQGIAIDYAGNIYITGYTYSDDFPVTFDAISGDKRGTTDIFLSRFTPDLNCDYSTYLGGSGPDFCYSIISRDSRIYLAGKTNSSDFPVTPNAYQKTRNGSSDGFIMVFNDYSVEYSTYLGGRGDDSINDITQDILGNLYLTGWTGSDNFPLTPGAYDSSLSGVDAFVMKFSIPKGVLYSSYLGGIEADQGYGVAVDRYQNIYVAGKTWSSNFTVTPDACKKNLTGLSDGFLTRFTPFIISNISVTPLNGTGPLTVTLRGNITNCGDSTGWYRLDLYINGYRTAGKWVEVGSLETEPFEFEYTLRNSRAYSVGVNNFPPATVRVFLGPLIIPENLRVTPSGGQEPLKVNVTADLVNYGDLPDSYTAELYIDGVLLDSRNVTVNASSRTTVSFNRTLAAGLYEITINDLEPELVYVMEGEKFYIENFTLTPQSGAAPLTVTVSAMITNIDSNPRSYTATIYVNGVPDHTKVLNIPGESTVPFSTSILLPDRGLYTISLNNNVSGTVRVLSEANFTLSNVTVSPVEGKSPLNVTVTAIVRNNGDLAGDFAVTLYLDDVAWETRTVSVPGKSSVLVSFKKELAFPGEYRLRLNSGTDVTIRVLEPDPTITGFNVTPVTGPAPLSVRASLNVTNPHDLVIGFTARLMVDGVVVQENIVSLSPGETREIAMGTLLTPGNHTVGINEFSKIVRVLRPASITLSDLRVTPSSGFSPLTITATATARNTGEVDGNYTAVLYINGLAVDEKNVTVGAGRSVQVAFNHTIENAGIYLAGIGSLTPLDVRVLSEPAISNLSATPLTGVSPHRIIVTALVSTTEEGSGNYTAGLYIDGVNVQNRTVRVTGPGSVLVSFTADISEPGEHQVTVNSLSPVTVRVLRPATFIVDSLTVSPSTGVIPFRVNASVRVTNIGDIAGNYTARLYIDGVNVQNRTVNVPAGGDVTVSFTYNITQRGNHTVWIDNPPGINVNALKPATLEIRSFSVTPGSAVGSVNANVSAEIENSGDLEGEFSIPFYLNGSLIRNETIRLGPGERGNINFQQYLSGPGVYTFSLGNLRNSTVYVNPARRKYSFTFRNTGKYTTTVTYYVTVYSSTGAKLGYRTFKFTLKPGRSYSATIGYYPYDARIVTTRKIYNPSRYTRTIKLSETFRADTLSATLNYSNTIRGYRYVYIKKTFRAVNMRITVT” the protein production was “failed”.

In the case of “MRRSPCNQGLSNLMQLFTYLAPAGQALLPYLSEISIALVACTLVMLGGEINAFLRRALRNQHFLVRTLAFIFINAFGYGLIIVKASPYVARTLAQLESGMMLTLIVSCFVVIGLWAQRNHQI”, the protein production is reported as “failed”.

With “MSETERTLVIIKPDAVVRGLIGEIISRFEKKGLKIVGMKMIWIDRELAEKHYEEHREKPFFKALIDYITKTPVVVMVLEGRYAVEVVRKMAGATDPKDAAPGTIRGDFGLEVSDAICNVIHASDSKESAEREISLFFKPEELFEYPRAADWFYKKGI” the protein production was “not failed”.

For “MNNTIPRWRGFNLLEAFSIKSTGNFKEEDFLWMAQWDFNFVRIPMCHLLWSDRGNPFIIREDFFEKIDRVIFWGEKYGIHICISLHRAPGYSVNKEVEEKTNLWKDETAQEAFIHHWSFIARRYKGISSTHLSFNLINEPPFPDPQIMSVEDHNSLIKRTITEIRKIDPERLIIIDGLGYGNIPVDDLTIENTVQSCRGYIPFSVTHYKAEWVDSKDFPVPEWPNGWHFGEYWNREKLLEHYLTWIKLRQKGIEVFCGEMGAYNKTPHDVVLKWLEDLLEIFKTLNIGFALWNFRGPFGILDSERKDVEYEEWYGHKLDRKMLELLRKY”, the protein production was “not failed”.

For “MHKYRLVAKKGEGTFSEVLKAQCIKNGKYVAIKCMKNHFDSLDQVNNLREIQALRRLSPHANIIKLLEVLYDQPTGRLALVFELMDMNIYELIRGRRHYVAEERIKNYMYQLMKSMDHMHRNGIFHRDIKPENILIMDDCLKLADFGSCRGIYSKQPYTEYISTRWYRAPECLLTDGYYNYKMDMWGVGCVFFEIVSLFPLFPGTNELDQITKIHNILGTPPPDLLAKMKKRSAHMDFNFPPKEGSGVAKLIPHVNPECVDLIVKLLMYNPDERLSARQALRHPYFRDLREAEKRQKALLAPDVSNHFTAMEADKARQQQTVSSTGSDHEHPTSAGGDGGAGTGAVGTHDGSAAAAAAAAALPSISGARGHAGPEGGHDNDMG”, the protein production was “not failed”.

In the case of “MGKVSFGFLGLMLVVVVIGVVECRRFEKETLGGGGGGGLGGGFGGGKGFGGGIGAGGGFGGGAGGGAGGGLGGGAGGGGGIGGGAGGGAGGGLGGGAGGGLGGGHGGGIGGGAGGGAGGGLGGGHGGGIGGGAGGGSGGGLGGGIGGGAGGGAGGGGGLGGGHGGGIGGGAGGGAGGGLGGGHGGGIGGGAGGGSGGGLGGGIGGGAGGGAGGGGGAGGGGGLGGGHGGGFGGGAGGGLGGGAGGGTGGGFGGGAGGGAGGGAGGGFGGGAGGGAGGGFGGGAGGGAGGGAGGGFGGGAGGGHGGGVGGGFGGGSGGGFGGGAGGGAGGGAGGGFGGGGGAGGGFGGGF”, the protein production is reported as “failed”.

For “MNFIIEPGSLADIDELERLYDELNDHLSATINYPGWIKGIYPVRENAAAGVDDNSLFVARCDGRIAGSVILDHQPEKAYENIVWKIDADYSYIFVVRTFVVHPSFLQMGVGHALMDFSLELALKSEMKSIRLDVYEKNLPAISLYEKCGFEYIDTVDLGLGHYGLDWFKLYEKVILEHHHHHH”, the protein production was “not failed”.

For “MGENNSHKHSLLFIVLISCAAGLGGLLYGYDTAVISGAIGFLKKLYNLSPAMQGFVISSIMVGGVLGVGFSGFLGDAIGRRKVLMLAAALFAISAVISSISTSAFMLIFARIVGGLGIGMASALSVTYITECAPPSIRGRLSSLYQLFTILGISITFFVNLGIVNMGSETWRVSTGWRYMLACGTVPAIVFLITLFFVPESPRFLVKSGNIKKAAAVLTKINGAEIAKQELDSISKSLATENDSSLGQLLQPGLRRALLIGIFLAIFNQAIGMNSITYYGPEIFQMIGFKNNSSFLATSVIGVVEVFSTILAMFLIDKLGRKKLMEIGSAAMAVFMLLIGTSFYIKLSNGFVILIFIICFVVSFCISMGPIPWIMIPEIFPNHLRARATGIATIFLWGANWAIGQFTPMLLNGIGGAYTFWIFCGINVICFLVVTTKVPETKNKSLEEIEKFWIPKSKQNAKGSSVGAK”, the protein production was “failed”.

In the case of “TRMAPVIMVPGSSASQNRFDSLITELGKETPKKHSVLKLTVQTDGTIKYSGSIAANDNEPFIVIGFANNRDGKANIDKQAVWLNTAFKALVKTYHFNHFYALGHSNGGLIWTLFLERYLKESPKVHIDRLMTIASPYNMESTSTTAKTSMFKELYRYRTGLPESLTVYSIAGTENYTSDGTVPYNSVNYGKYIFQDQVKHFTEITVTGANTAHSDLPQNKQIVSLIRQYLLAETMPDK”, the protein production is reported as “not failed”.

Source: a protein production outcome set (Wang et al. 2014)
